{"source": "paper doi:10.1101/2025.04.02.646914", "experiment_in_all_cases": "FP", "key": {"MS2 coat protein WT": {"molecular_target": "MS2 coat protein WT (bacteriophage MS2, UniProt P03612 2-130)"}, "MS2 coat protein W32A": {"molecular_target": "MS2 coat protein W32A (bacteriophage MS2, UniProt P03612 2-130, W33A)"}, "MS2 coat protein N55D": {"molecular_target": "MS2 coat protein N55D (bacteriophage MS2, UniProt P03612 2-130, N56D)"}}, "data": [{"binder": "CCUACAUGAGGAUUACCCAUGUU (structured_RNA)", "note": "[5' fluoro MS2 SL]", "values": [{"measurement": "binding result", "setting": "MS2 coat protein WT", "value": "binds"}, {"measurement": "binding result", "setting": "MS2 coat protein W32A", "value": "no binding"}, {"measurement": "binding result", "setting": "MS2 coat protein N55D", "value": "no binding"}]}]}
